Assay: soluble on expression in E. coli; label from the status in PepcDB or PDB records

| Sequence | soluble on expression in E. coli |
| --- | --- |
| MGSDKIHHHHHHMDDTTPPETPAVDDLLQRIAGAYDTLPRQLKRIASYIDEHRSSVMMDRTSDIAQRCGVHPSAVVRFAQRFGFSGFSDLQAVFKDAYTGQNPTVQSYQQRIRSLIDGEAGPMTGGAVARQFIDASRAGLDELAAGLDDDQFDAAVTMLERAENIYVVGVRRSFPVASYIVYALQHTAKRVHLVSGLGGMYREQIRSVKKGDVVIAISFAPYGKETQYCLRAARHNHAQTLVVTDSRLSPLARDASAHLLVKEGSAFAFRSLTSTICLCQALFIALAYRLELNVEEVKDIGGYDD | not soluble |
| MAPSRRERERERRREQIIRAAEKAFFARGYDRVTMDEIAEEAEVNKALLYYYFKNKESLFFAVNLYGVRILHSMYRRCLELDTDGYGKVRAMVEALYSFSKEHPDYFRIYCYSGTERFELSESEDAREIVDLRTGMWRLMVEAIMEGMNDGSIRSDLDPVELSIYIHTLAINALNLDFTSRMVLEARNISRDRFWEDLEVFLESALRP | not soluble |
| MGSDKIHHHHHHMTSREEFLEKLAQAGTLNLIFQLTDQCALSCRYCFAKGSHPSGGLRIADDLLDAAIRSAFDTRHHQVSFEWTGGEPFFAGIDFYRKVDRLQKKYATKPYANTIQTSGYVHDRELIAWLAGHGFRISSTIDGPPELHDFQRPVNGGGPSLGAVLATRETIIEHQGHCGCICTVTRNSLGKEGAILDYYRSLGIEAFHSNPYYYFSKNLVGDESLALDADGYAAYFIAQFNAWFEGGRKLPMPGTLNYILRSLTAGAGLKQSVCTFGGRCLTNFLAITPDGDAWLCPKFAGFDEMRLGNVGKMAITDILSDANPAMARLIDERLDAIHTCEADECRFQYLCNAGCPYYSFIASGGRNIAVKDSLCTGKQLLFEYLESVVELIDPARLPEPSPLEHA | not soluble |
| MPIIYYDGNCVYCYNYAIWLIQHGLSTRYQFAKLQGDVAQNLLENYPEAQQYDSVILQEGDQLKYKSDAITTLITSLTNYKWLGILLRFVPNIIRDFGYQLFADNRNHMWKTHWHEPNDYEKSFFIDLEHHHHHH | not soluble |
| MFQDVLVITVAVGRGGDGAVSFRREKFVPKGGPDGGDGGRGGSVYLRARGSVDSLSRLSKRTYKAEDGEHGRGSQQHGRGGEDLVIEVPRGTRVFDADTGELLADLTEEGQTVLVARGGAGGRGNMHFVSPTRQAPRFAEAGEEGEKRRLRLELMLIADVGLVGYPNAGKSSLLAAMTRAHPKIAPYPFTTLSPNLGVVEVSEEERFTLADIPGIIEGASEGKGLGLEFLRHIAGTRVLLYVLDAADDPFKTLKTLRKKVWAYDPGLLGRPSLVALNKVDLLEKEAVKALADALAREGLAVLPVSALTGAGLPALKEALHALVRSTPPPEMPKPVPRKEVQAGVEVVPVAEGVYEVRAPEVERYLARIKGDLMEAAGYLQEVFRRQGVEAALRAKGVRAGDLVRIGGLEFEYIPEV | soluble |
| MKTNKKDEETGGNVYAHLDKTSVLQEARAFNETPINARKCCFILSKLIYIIQQGESIGRTEATEAFFGVTKLWQSKDVSLRRMVYLAVKELAEVSDDVIIVTSSLTKDMTGREDLYRAAAIRALCKITDTGMLQTIERYMKQAIVDRNSAISSSAIVSSIHLMRKSSEVVRRWANEVQEAVSSDNHMVQYHALALLYQIRANDRLAVNKLVQKFSKNALRSPYAVCYLIRIATRCLVDDDQPDSSVFTFIESCLRHKSEMVVYEAARAIVSLPQTTPSEIQPAITALQMCCTSPKAAVRFAAVRTLNKVAMAHPNAVMSCNVDLEKFITDPNRSIATLAITTLLKTGAESSVERLMQQIAGFVNEISDEFKIVVVDAIRSLCSRYPRKHTVMMPFLAKMLRSDGSYDYKKAIVETIIAIIEENPDAKVAGLAHLCEFIEDCEHDNLSTRVLHLLGREAPKTPNPSSYIRFIYNRVILESTKVRAAAVTALAKFGAQCVDLRPSIQVLLKRCLLDSDDEVRDRATFYLKMLTEAAEGLIHNFILDGLQVSPSGLERSILDYLRSGSYSSPFDLRVVPVTQQALSQPEKRVPQLVEEEEKPKAPKVEPYAAQLAAIPQFAALGPVFKSSTRIALTESIAEYTVHMIKHTFANAMVLQFECKNTMNDQLLLDVSVELEDPDGEWETGNTVQIDKLPYGEVHSAFSLLEFPDSGAISGSLGAILKFKVMDVDPTSGEPDSDDTYEQTYVLEEVDVNVSDSVQGVAKSSFGSAWEALGDDATREETFQLSTVENIPDAVKKISEILGLVPCERSDRVPEGKTQHTVFLSGVFRGGYDVLSKATVAVDPNDNSIAMNIIIKSNEPLVADLVISAVV | not soluble |
| MGSDKIHHHHHHMANFAYEVFSTVVAQHTFYQAAATLNVTPSAVSHSINQLEKELGFPLFIRNRSGVELTSDGRQVLPYVQEILNTESNLRQVADNIQGLHSGSVRIGGFSSVCINWLPRIIREFNHKYPDIKISVMQGNFNEITNWAKIGTIDIGFTSMPVNENLLVHSLINDPIYCVTPADFIPENGEFITTDDVADKNFILQQSDYDRDTKLALDHYHVTNNFLRFSIDDQSIISMVESGLGMGILPQLALRKLTGDVNTFSFAEPYNREIALVANKTQAAAPSTAIMIRAIKQFLTKEYPDQMLWQ | not soluble |
| MKMKQVSRSALVSFSAEQMFHLVNDVARYPEFLPGCSGSCVLEQSEAHMVASVDVSKAGISKTFTTSNQLTPGVSIAMSLVDGPFKTLRGGWFFTPLDEAACKVELRLEFEFSSKMIELAFGKIFNELTSNMVNAFTRRAKQVYGEMAGDPLEHHHHHH | not soluble |
| MAHHHHHHMFTLLCCADLAGNKVNLEIALDTFPATLRGLESDIARIFNREVEKSGAVEHNANVAEPFQVMSVFVYDDVLLRWTKLESLTQLHEYDQLYVFQPQTQWHVDVQKELPPPRPPARSRASSITGASGTLASLQVNGCASSPWPRSGISTRISAAGDIDTSHSPVPSRSPARAQLEEHRREEERLAHRLSTLRRVREHLEREAQREEEEERRRRSLETYRLLKCKEEEIWSQRDALARAEEEFRQFLAEKQRLMGQSPSP | not soluble |
| MPADRVAFPPTLIGIELDPRQGLSKQLYEILRRQILDGRLSSGMRLPASRDLAKSLAISRNSVMRAFDQLYAEGFIEGRVGDGTYVAQLAGRHAALQRNAPGKLSTNLPTGLHTGLCTGLSTFAVENTQNLLNQVIHNPALQRVEKHHLNEPPDDRPKAFRVGVPAFDLFPFALWGKLYASFWRKPNLDQLGYGAAAGEWRLRELVAAYLRSSRGLGCTAEQIVITSGAQHAISLCAQLLVTPGEGVAVENPGYRAAGHAFALAGARLQGVAVDSEGMRCADLEQTDCRLAYVTPSHQYPTGVVMSLARRLELLAWAEKNQSWIVEDDYDGEYRYSGSPLAPLAALDQNGRVLYVGTFGKIVFPALRLGYLVLPEHLVRPFSQRKAVDMRHTEIGVQAVMAQFIAQGHFQRHIRRMRRAALSRRDALLAGWPDNVPGCAAMPKVVAGLHVMVKVDSVAREQALIAKARSVGVEMSPLSGYWLSDSDEPVDNRAGLVLGFAAVPEPAIADALNRLRMVWSE | not soluble |
| MGSDKIHHHHHHMDTLQKTIHNSEYPVVCRSCEARHGGLCSTLTPQQLCDLNRHSSRKKLEAGNELLGQGELVTSYGNILNGVVKLSKMMSDGRQQIVGLQFAPDFLGRPFMAESKMTAEAATDVEICLFPRRIVDRMVTEVPDMERKLHSQSLKELDEARDWMLTLGRKSAQEKVASFLYMIATHIDPENDDKSCFDLPLSRADIADFLGLTIETVSRQMTKLRKEGTIRIENNRHITVPDLDVLSEAAGND | not soluble |
| RKRNRIPLRCTICRKRKVKCDKLRPHCQQCTKTGVAHLCHYMEQTWAEEAEKELLKDNELKKLRERVKSLEKTLSKVHSSP | soluble |
| EFNDKYPDINIDMELDNRFVDIVNERFDLAIRTGMLPDSSLIARKLVDANWVVCASPKYLAKHGIPKQPIELTKHNCLVYSYQETGAREWAFKAGDKMYQVTVDGNLCTNNSSALRN | not soluble |
| MTHYKDDSYALHTDLYQINMAYTYWKDGIHNRRSVFDLYFRKLPFENGYAVFAGLEKIVEYIENFSFTESDIAYLAELQFEEEFLHYLQNMKFTGTIRSMQEGEVVFNNEPLLRVDAPLGEAQIIETALLNIVNYQTLIATKAARMKHAASNDELLEFGTRRAHEFDAALWGTRAAFIGGFSSTSNVRAGKRFGIPVAGTHAHSFVQAYRDEYVAFKKYAETHKKCVFLVDTYDTLKSGVPNAIRVAKEFGDRIDFYGIRLDSGDMAYLSKKARKLLDEAGFTNTKIIASSDLDEYTIMHLKSQGAKIDVWGVGTKLITSFEQPALGAVYKLVAIEDTDGKLNDTIKISSNPEKITTPGLKRIYRIINRVNDHAEGDYIALDSEEPGKEERLKMFHPVHTYISKFVTNFEARELHKDIFVNGERTYELPSILDIQKYNEQSLSLFWEEYMRTLNPEEYPVDLSQECWDHKMNYIQTVREQVEKNIQK | not soluble |
| MTYPTFALDDITSLHESAQVEFKLARGRDGQGQLPEDIWATYSSFANTLGGEIILGVREDRGHFTIEGIPNPQPVLQEFWEIIDNPSRVSCNILAISDVQLIEIMNKKLIRIRVPLAPEHLKPVFIGTDVYTGSYFRVGDADMHASRKQVMQMLRRAHHCNKLFKARLEHHHHHH | not soluble |
| MNILKHFPSYVGPSKIRTLVIPIGHWTRKEFNNAVQKLSEFNEIHLSDVTPIDSPIFTPQGFPHGKLFFDFLTIDHDDALELFLYDFEPFRKTFVIIGLVNDYSDPLTNLNFMKEKYPTLISPNLVYASSTPTKELEQTIDTMENVFASSPDMQKNIETIMCDIARNFLTALNSYYSSYKHVTLRSPGAIGGNAVLKTTLIRQNSYTSSSSSTPMSAVQSSVSSSSKAGSVTTASKRLSSFEMTTNSLKRSASLKLATTLSTSENRSQQKSLGRQMKILGNFQLLAGRYVDALNSFVDAITTLYKVRDYLWLGSALDGISICFLLLSYLGLSYQIPQIVSLICPVEKLNFESSSTGISPVDSNSKATASTTASSTPRNSISIAAMQSPRNSIMSLSAPALNIDVENINLPLLIKCISDKVLYYYDLSLMHNSEYAPQVVYCEFLLKTLTFMTSCYKSSEFSKDVLDNIVKNQHRALSDIPNSPMFPRFEVYFYSNKLFELQLKEMQVEAQIKIYSTMAEVYRLLGYKRKQLFVLRLLMVALLATPNKIAWHPDYRTLIDTIIELLNINESEAKINVDDPSQSTWLILQKKILQLCIKVSRKINDFEYVAKFSSILITKYTHLLNQSEQDALFKEYIQPSITNESITSYWDPFILREVVINRILDSDPTSNEIPLESDVSSLESLENRQKTQDINPQEVFNPFKRVQPTSFVSNNSTKVPILVFLVGDKAEFTCRVQNPFKFDFTINDIQLDEEISEFCEIDRKAVSYSGPYNVKAESIRSITLPLIIKKPTYKKIYEISCLKISILKLPLQKFDIINDSRRSNPVEEEAEYSKCIYGKLKIKILPEQPQLELLSTSKMTRNSWMMLDGTKTDFHITVRNKSLSCAINHIKIIPMNNIEQMLKPDYWKKMPPDDLYIMEKQLDWLSKSCVRIIKLPTVIKPNETITFDLELDNTAVPFNFTGFDLLIEYGMSATDESCIYLKKLSIPYEVTLRRTIEVPSMDIIPLNELFSSQVENVDWIEYVMSKIRAESNLHSRDFILLLLDFRNSWIDGIKLNVQFEDFTSNEYHVEASHTSRIIVPIKKIDYKKYNFENTPIPRIYPGRQFIQSGLNEEQTIEMRQKFWCREHIISKLKCNWKLTTDQSVTGSVDFNKFIEKFDHKMVYTIYPGRLFYGVQLLLDEPKVKVGEIINLKIITEPTSTCRRKQNSTVNFLDIVIFDSKTSKILPRSNRRILYNGSLTKPISTTKVSEINLEIIPIEKGRYEFSVCISKSNNQDGIIQFDSENVILSVI | soluble |
| MDILLMDTIQQEVLALFREEIPGYLDSNWKEIPLELDSDLFEAPGDDLHEALDKFEKKFNVDLSQVKWSCYFPWENTPLLTRWFKLKREDVERTRKPLTIRMFSESAKAGKWLYD | not soluble |
| LNNLEELKRDIIEQFKEKNALDEGIVVMASGGKDSSTAIALAKDLGLNIEYLIHFYHRWSWDVSKKMVEKLSKKFDIPVIFYNITDELLKRTKGAKGSSICRICKNIMKDKAVDISKEKGIRIIMTGDSALEKVSGAVMNYLRDVYGEVVYNKMELTPVPQKYSKGKDKEVLFFRPLIRLACEDVLKLMDYYNIEIERAHE | not soluble |

Source: the DeepSol protein solubility set
